Here are results for four molecules from patent US20120141463A1 (AstraZeneca / MedImmune, published 2012).

Experiment [1] concerns the target T1, cεmx.migis peptide (human, C-terminal -(Ahx)(K-Biot): aminohexanoic acid linker followed by a biotinylated lysine).
T1 construct: also called peptide (ii); cεmx.migs peptide
T1 peptide: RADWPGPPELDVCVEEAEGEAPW
The experiment can be described thus: inhibition phage ELISA: cεmx.migis peptide on Neutravidin plate, phage with control IgG, A1c or B1, anti-M13-HRP. In general terms: ELISA stands for enzyme-linked immunosorbent assay.

Experiment [2] addresses T2, peptide from phosphoinositide binding protein (human).
T2 construct: also called peptide (vi); PIBP peptide
T2 peptide: TQLLCVEAFEGEEPW-{Ahx-K(biotin)}
The experiment can be described thus: peptide ELISA (Migis, cemx.migis, PIBP peptide); antibody concentration not shown.

A further experiment addresses T3, ε-migis peptide (human).
T3 construct: also called peptide (i); human ε-migis
T3 peptide: ELDVCVEEAEGEAPW-{Ahx-K(biotin)}
The experiment is described as above.

Another experiment deals with T4, mIgM on RPMI 1788 cells (human, UniProt P01871 1-474).
T4 construct: whole, on cells; Endogenous immunoglobulin of the cell line; light chain not described; also called IgM (RPMI 1788 cells); membrane IgM
Nature of the experiment: FACS, primary antibody plus secondary (Gt α Mu or G α Hu); % cells staining and MF. On the technique in general: Flow cytometry measures light scatter and fluorescence of single cells or particles in a stream.

Experiment [3] deals with T1, cεmx.migis peptide. Nature of the experiment: inhibition phage ELISA: cεmx.migis peptide on Neutravidin plate, phage with irrelevant IgG control or A1c IgG, anti-M13-HRP.

No end group written: not given here. Ahx = NCCCCCC(=O)O

T4 sequence (P01871 whole entry): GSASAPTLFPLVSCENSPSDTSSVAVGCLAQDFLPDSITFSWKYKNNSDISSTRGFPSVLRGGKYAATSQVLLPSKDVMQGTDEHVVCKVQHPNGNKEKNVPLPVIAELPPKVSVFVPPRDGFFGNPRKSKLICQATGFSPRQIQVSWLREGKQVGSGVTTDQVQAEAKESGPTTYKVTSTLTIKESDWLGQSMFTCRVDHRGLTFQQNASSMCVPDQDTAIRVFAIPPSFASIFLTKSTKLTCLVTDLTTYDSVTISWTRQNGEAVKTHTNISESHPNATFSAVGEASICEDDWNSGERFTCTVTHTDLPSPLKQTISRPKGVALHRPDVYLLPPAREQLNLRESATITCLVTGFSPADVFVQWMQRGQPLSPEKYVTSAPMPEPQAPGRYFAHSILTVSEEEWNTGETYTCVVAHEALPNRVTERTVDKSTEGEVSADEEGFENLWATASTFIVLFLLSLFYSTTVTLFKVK

B1: F4 antibody (antibody, V domains shown)
VH: EVQLLESGGGLVQPGGSLRLSCAASGFTFSNYGMFWVRQAPGKGLEWVSSIWPSGGNTMYADSVKGRFTISRDNSKNTLYLQMNSLRAEDTAVYYCARASYYGMDVWGQGTTVTVSS
VL: DIQMTQSPSSLSASIGDRVTITCRGSQNIGRYLNWYQHKPGKAPDLLVYAASSLRSGVPSRFSGSGSGRDFTLTISSLQPGDFATYYCQQSYSAPFTFGAGTKVDVKR
notes: Human Fab phage clone converted to full length IgG; also called clone F4
For B1, the binding result with cεmx.migis peptide [1] is recorded as “binds”.

B2: B1 antibody (antibody, V domains shown)
VH: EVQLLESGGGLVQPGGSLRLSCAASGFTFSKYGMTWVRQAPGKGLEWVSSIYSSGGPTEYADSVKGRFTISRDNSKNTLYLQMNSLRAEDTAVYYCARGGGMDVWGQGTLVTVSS
VL: DIQMTQSPVSLPVTLGQPASISCRSSHSLVYSHGGTYLNWFQQRPGRSPRRLIYQVSNRDSGVPDRFSGSGSDTDFTLQISRVEADDIGIYYCMQSTYWPYAFGQGTKLDIKR
notes: Human Fab phage clone converted to full IgG; also called CP1-B1
As to B2, the binding result in experiment [2] was “no binding”; with ε-migis peptide, “no binding”; with cεmx.migis peptide [1], “binds”.

B3: D5 antibody (antibody, V domains shown)
VH: EVQLLESGGGLVQPGGSLRLSCAASGFTFSKYHMVWVRQAPGKGLEWVSSIGPSGGNTYYADSVKGRFTISRDNSKNTLYLQMNSLRAEDTATYYCARALGATFDYWGQGTLVTVSS
VL: DIQMTQSPLSLPVTLGQPASISCKSSQSLVYRDGITYLSWFQQRPGQSPRRLIYKVSNRDSGVPDRFSGSGSDSNFTLKISSVEAEDVGLYFCMQGSHWPFTFGPGTKVDIKR
notes: Fully human clone from the Dyax FAB-310 Fab phage library, converted to full length IgG (detected with an anti-human IgG1 Fc antibody); also called D5 IgG; clone D5
On to B3, for which the binding result in experiment [2] was “no binding”; with ε-migis peptide it was “no binding”; with mIgM on RPMI 1788 cells, “no binding”; in the experiment with cεmx.migis peptide [1] it was “binds”.

B4: A1c antibody (antibody, V domains shown)
VH: EVQLLESGGGLVQPGGSLRLSCAASGFTFSFYSMLWVRQAPGKGLEWVSYIGPSGGKTYYADSVKGRFTISRDNSKNTLYLQMNSLRAEDTAMYYCARRYCSGGSCYFDYWGQGTLVTVSS
VL: DIQMTQSPSTLSASIGDRVTITCRASQSINSWLAWYQQKPGKGPDLLIYKASSLQSGVPSRFSGSGSGTEFTLTISSLQPDDFATYYCQQYSSWPLTFGGGTKVEIKR
notes: Human Fab phage clone converted to full IgG; also called anti ε-migis antibody A1c
In the case of B4, the binding result (in experiment [2]; with ε-migis peptide; in the experiment with cεmx.migis peptide [3]) was “binds” each time.
